Changes are numbered by the printed parent chain.
T1: cyno PRLR (Biacore antigen) (cyno, UniProt A0A2K5WXK1 25-234)
T1 construct: also called cyPRLR
T1 sequence: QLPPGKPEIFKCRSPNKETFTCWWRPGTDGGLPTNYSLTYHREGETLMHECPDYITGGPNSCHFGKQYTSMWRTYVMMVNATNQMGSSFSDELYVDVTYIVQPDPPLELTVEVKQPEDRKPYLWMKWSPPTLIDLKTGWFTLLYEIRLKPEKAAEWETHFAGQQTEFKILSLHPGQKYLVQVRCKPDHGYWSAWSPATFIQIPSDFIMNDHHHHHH

T2: murine PRLR (Biacore antigen) (murine, UniProt Q08501 20-229, limits assumed)
T2 construct: also called muPRLR
T2 sequence (looked up): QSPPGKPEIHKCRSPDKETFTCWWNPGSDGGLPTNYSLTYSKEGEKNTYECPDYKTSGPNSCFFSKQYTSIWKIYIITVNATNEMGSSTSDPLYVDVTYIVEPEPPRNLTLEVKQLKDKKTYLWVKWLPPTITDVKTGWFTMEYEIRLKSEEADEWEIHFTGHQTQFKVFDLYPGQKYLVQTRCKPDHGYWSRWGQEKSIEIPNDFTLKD

T3: human PRLR (Biacore antigen) (human, UniProt P16471 25-234, limits assumed)
T3 construct: The construct injected over captured antibody is not described (a soluble form is likely); also called huPRLR
T3 sequence: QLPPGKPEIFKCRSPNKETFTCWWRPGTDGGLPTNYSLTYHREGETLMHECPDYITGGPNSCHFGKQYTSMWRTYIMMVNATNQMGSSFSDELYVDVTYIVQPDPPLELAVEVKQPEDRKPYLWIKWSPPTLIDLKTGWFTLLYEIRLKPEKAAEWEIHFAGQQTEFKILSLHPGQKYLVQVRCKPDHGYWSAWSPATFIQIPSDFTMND

B1: Ab19 (antibody, human IgG1, kappa, V domains shown)
VH: EVQLVQSGAEVKKPGSSVKVSCKASGYTFTTYWMHWVRQAPGQGLEWIGEIDPSDSYSNYNQKFKDRATLTVDKSTSTAYMELSSLRSEDTAVYYCARNGGLGPAWFSYWGQGTLVTVSS
VL: DIQMTQSPSSVSASVGDRVTITCKASQYVGTAVAWYQQKPGKSPKLLIYSASNRYTGVPSRFSDSGSGTDFTLTISSLQPEDFATYFCQQYSSYPWTFGGGTKVEIKR
notes: humanized from Ab6; G1; also called Ab1 HC.1a and Ab1 LC.1a
B2: Ab6 (antibody, V domains shown)
VH: QVQLQQPGAELVMPGSSVKLSCKASGYTFTTYWMHWVKQRPGQGLEWIGEIDPSDSYSNYNQKFKDKATLTVDKSSSTAYMQLSSLTSEDSAVYYCARNGGLGPAWFSYWGQGTLVTVSA
VL: DIVMTQSQKFMSTTVGDRVSITCKASQYVGTAVAWYQQKPGQSPKLLIYSASNRYTGVPDRFTDSGSGTDFTLTISNLQSEDLADYFCQQYSSYPWTFGGGTKLEIK
notes: murine monoclonal, isotype G1; also called murine Ab6
B3: Ab5 (antibody, V domains shown)
VH: QVQLQQPGAELVRPGTSVKLSCKASGYTFTSFWMHWVKQRPGQGLEWIGVIDPSDTYTNYNQKFKGKATLTVDTSSSTAYMQLSSLTSEDSAVYYCARGDYSNWFTYWGQGTLVTVSA
VL: DVVMTQTPLSLPVSLGDQASISCRSSQRLVHSNGNTYLHWYLQKPGQSPKLLIYKVSNRFSGVPDRFSGSGSGTDFTLKISRVEAEDLGVYFCSQSTHVPWTFGGGTKLEIK
notes: murine monoclonal, isotype G2a; also called murine Ab5
B4: Ab7 (antibody, V domains shown)
VH: QVQLQQPGAELVMPGTSVKLSCKASGYTFTSYWIHWVKQRPGQGLEWIGEIDPSDSYTNYNQKFKGKATLTVDRSSSTAYMQLSSLTSEDSAVYYCGRSFFTNWFAYWGQGTLVTVSA
VL: B3 VL with R28S, S81N, W101F, G105S
notes: murine monoclonal, isotype G1; also called murine Ab7
B5: Ab21 (antibody, human IgG1, kappa, V domains shown)
VH: B1 VH
VL: EIVMTQSPATLSVSPGERATLSCKASQYVGTAVAWYQQKPGQSPRLLIYSASNRYTGVPARFSDSGSGTEFTLTISSLQSEDFAVYFCQQYSSYPWTFGGGTKVEIKR
notes: humanized from Ab6; G1; also called Ab1 HC.1a and Ab1 LC.2a
B6: Ab49 (antibody, human IgG1, kappa, V domains shown)
VH: EVQLVQSGAEVKKPGASVKVSCKASGYTFTDYNIHWVRQAPGQGLEWIGYIYPNNDGTGYNQKFKSRATLTVDNSTSTAYMELRSLRSDDTAVYYCARGDGNYVGDMDYWGQGTTVTVSS
VL: DIQMTQSPSSLSASVGDRVTITCRASENIYSYLAWYQQKPGKAPKLLVYNAKTLAEGVPSRFSGSGSGTDFTLTISSLQPEDFATYYCQHHYATPFTFGQGTKLEIKR
notes: humanized from Ab8; G1; also called Ab3 HC.1a and Ab3 LC.1b
B7: Ab12 (antibody, V domains shown)
VH: DVQLQESGPGLVKPSQSLSLTCTVTGYSITSDYAWNWIRQFPGNKLEWMGYIGYSGRTSFNPSLKSRISITRDTSKNQFFLQLNSVTTEDTATYYCARGGFAMDYWGQGTSVTVSS
VL: QIVLTQSPGIMSASPGEKVTMTCSASSSVTYMYWYQQKPRSSPKPWIYLTSNLASGVPARFSGSGSGTSYSLTISSMEAEDGATYYCQQWSSTPPLTFGGGTKLELN
notes: murine monoclonal, isotype G2a; reported as PRLR agonist; also called murine Ab12
B8: Ab10 (antibody, V domains shown)
VH: EVQLHQSGPELVKPGASVKISCKASGYTFTDYNMHWMKQSHGKSLEWIGYFYPYNGGTGYNQEFKNKATLTVDISSSTAYMELRRLTSEDSAVYYCARGGWGIYYAMDYWGQGTSVTVSS
VL: DIQMTQSPASLSASVGETVTITCRASENIYSYLTWYQQKQGKSPQLLVYNAKTLAEGVPSRFSGSGSGTQFSLKINSLQPEDFGSYHCQHHSVTPLTFGAGTKLELK
notes: murine monoclonal, isotype G2a; also called murine Ab10
B9: Ab11 (antibody, V domains shown)
VH: EVKLVESGGGLVQPGGSLKLSCAASGFTFSDYYMFWVRQTPEKSLEWVAYISNGGGSTYYPDTVKGRFTISRDNAKNTLYLQMSRLKSEDTAMYYCSRQLFYYGSRGAMGYWGQGTSVTVSS
VL: B3 VL with V3L, R28S, L29I, H39E, F92Y, S94F, S96G, T97S, W101F, G105S
notes: murine monoclonal, isotype G1; also called murine Ab11
B10: Ab13 (antibody, V domains shown)
VH: B3 VH with T56S, Y57H, D73N, Q82H
VL: B3 VL with L9F, R28S, G89E, V90L
notes: murine monoclonal, isotype G2a; also called murine Ab13

Each binder was assayed against T1, cyno PRLR (Biacore antigen) (assay: SPR Biacore).
How it was run: (§1)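 Association rate, dissociation rate and dissociation constant were measured by surface plasmon resonance on a Biacore instrument. PRLR antigen was tested at 600 nM, 66.67 nM and 7.41 nM, a 3-point, 9-fold dilution series. Constants came from a 1:1 binding model fit (local Rmax, mass-transport term included) in Biacore T200 Evaluation Software.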
B1 showed a Kd of 0.691 nM, a koff of 0.000728 s⁻¹ and a kon of 1.05e+06 M⁻¹ s⁻¹. In the case of B2, the Kd is reported as 0.807 nM, the koff is reported as 0.00109 s⁻¹ and the kon is reported as 1.36e+06 M⁻¹ s⁻¹. B3 was tested, and the Kd was 0.7 nM, the koff was 0.000235 s⁻¹ and the kon was 336000 M⁻¹ s⁻¹. With B4 the Kd was 0.127 nM, the koff was 3.29e-05 s⁻¹ and the kon was 259000 M⁻¹ s⁻¹.

The binders below were run against T2, murine PRLR (Biacore antigen) (assay: SPR Biacore).
How it was run: as §1
For B2, the Kd was 635 nM, the koff was 0.394 s⁻¹ and the kon was 622000 M⁻¹ s⁻¹. With B3 the Kd was 14.4 nM, the koff was 0.00291 s⁻¹ and the kon was 202000 M⁻¹ s⁻¹. B4 gave a Kd of 41.7 nM, a koff of 0.0035 s⁻¹ and a kon of 84000 M⁻¹ s⁻¹.

These binders were tested against T3, human PRLR (Biacore antigen) (assay: SPR Biacore).
How it was run: as §1
For B1, the Kd was 0.409 nM, the koff was 0.000403 s⁻¹ and the kon was 985000 M⁻¹ s⁻¹. For B5, the Kd was 0.554 nM, the koff was 0.000586 s⁻¹ and the kon was 1.06e+06 M⁻¹ s⁻¹. Work on B6 yielded a Kd of 0.214 nM, a koff of 0.00012 s⁻¹ and a kon of 558000 M⁻¹ s⁻¹. Binder B7 has a Kd of 6.6 nM, a koff of 0.00186 s⁻¹ and a kon of 282000 M⁻¹ s⁻¹. Binder B8 has a Kd of 1.41 nM, a koff of 0.000228 s⁻¹ and a kon of 161000 M⁻¹ s⁻¹. B2 was tested, and the Kd was 0.45 nM, the koff was 0.000576 s⁻¹ and the kon was 1.28e+06 M⁻¹ s⁻¹. In the case of B3, the Kd is reported as 0.572 nM, the koff is reported as 0.000203 s⁻¹ and the kon is reported as 355000 M⁻¹ s⁻¹. With B4 the Kd was 0.153 nM, the koff was 4.27e-05 s⁻¹ and the kon was 280000 M⁻¹ s⁻¹. With B9 the Kd was 69.2 nM, the koff was 0.0211 s⁻¹ and the kon was 305000 M⁻¹ s⁻¹. Work on B10 yielded a Kd of 0.997 nM, a koff of 0.000431 s⁻¹ and a kon of 433000 M⁻¹ s⁻¹.

Each binder was assayed against T3, human PRLR (Biacore antigen) (assay: SPR simultaneous binding; PRLR held by surface mAb Ab19).
Procedure: (§2) Running buffer was HBS-EP+ (10 mM Hepes, pH7.4, 150 mM NaCl, 3 mM EDTA, 0.05% surfactant). Assay was performed at 12° C. using Biacore T200 and CM5 sensor chips with anti-human IgG (Pierce) amine-coupled in all 4 flow cells to ˜2000 RU.
(§3) Separate test mAbs were captured in flowcells 2, 3 & 4 (flowcell 1 was reference, no test mAb). All 4 flowcells were then blocked by injection with isotype control mAb at 50 ug/ml. All 4 flowcells were then injected with antigen or buffer only (buffer only is for double referencing, done for each mAb pair individually). All 4 flowcells were then injected with 2nd test mAb at 10 ug/ml. All 4 flowcells were then regenerated with glycine, pH1.5.
In the case of B1, the “solution mAb binding, % of PRLR binding” value is reported as -1%. In the case of B5, the “solution mAb binding, % of PRLR binding” value is reported as -1%. With B6 the “solution mAb binding, % of PRLR binding” value was -1%.

These binders were tested against T3, human PRLR (Biacore antigen) (assay: SPR simultaneous binding; PRLR held by surface mAb Ab21).
Procedure: as §2, §3
With B1 the “solution mAb binding, % of PRLR binding” value was -1%. In the case of B5, the “solution mAb binding, % of PRLR binding” value is reported as -1%. In the case of B6, the “solution mAb binding, % of PRLR binding” value is reported as -1%.

These binders were tested against T3, human PRLR (Biacore antigen) (assay: SPR simultaneous binding; PRLR held by surface mAb Ab30).
Procedure: as §2, §3
B1 was tested, and the “solution mAb binding, % of PRLR binding” value was -1%. For B5, the “solution mAb binding, % of PRLR binding” value was -1%. For B6, the “solution mAb binding, % of PRLR binding” value was -1%.

Each binder was assayed against T3, human PRLR (Biacore antigen) (assay: SPR simultaneous binding; PRLR held by surface mAb Ab40).
Procedure: as §2, §3
With B1 the “solution mAb binding, % of PRLR binding” value was -2%. In the case of B5, the “solution mAb binding, % of PRLR binding” value is reported as -2%. With B6 the “solution mAb binding, % of PRLR binding” value was -3%.

Each binder was assayed against T3, human PRLR (Biacore antigen) (assay: SPR simultaneous binding; PRLR held by surface mAb Ab48).
Procedure: as §2, §3
In the case of B1, the “solution mAb binding, % of PRLR binding” value is reported as 0%. B5 was tested, and the “solution mAb binding, % of PRLR binding” value was 1%. For B6, the “solution mAb binding, % of PRLR binding” value was 0%.

Each binder was assayed against T3, human PRLR (Biacore antigen) (assay: SPR simultaneous binding; PRLR held by surface mAb Ab49).
Procedure: as §2, §3
B1 was tested, and the “solution mAb binding, % of PRLR binding” value was 1%. For B5, the “solution mAb binding, % of PRLR binding” value was 0%. B6 was tested, and the “solution mAb binding, % of PRLR binding” value was -1%.

The binders below were run against T3, human PRLR (Biacore antigen) (assay: SPR simultaneous binding; PRLR held by surface mAb chAb5).
Procedure: as §2, §3
For B1, the “solution mAb binding, % of PRLR binding” value was 0%. For B5, the “solution mAb binding, % of PRLR binding” value was -1%. For B6, the “solution mAb binding, % of PRLR binding” value was 0%.

These binders were tested against T3, human PRLR (Biacore antigen) (assay: SPR simultaneous binding; PRLR held by surface mAb chAb6).
Procedure: as §2, §3
B1 was tested, and the “solution mAb binding, % of PRLR binding” value was 0%. B5 was tested, and the “solution mAb binding, % of PRLR binding” value was -1%. B6 was tested, and the “solution mAb binding, % of PRLR binding” value was -2%.

The binders below were run against T3, human PRLR (Biacore antigen) (assay: SPR simultaneous binding; PRLR held by surface mAb chAb7).
Procedure: as §2, §3
For B1, the “solution mAb binding, % of PRLR binding” value was 0%. For B5, the “solution mAb binding, % of PRLR binding” value was 0%. With B6 the “solution mAb binding, % of PRLR binding” value was 0%.

From US20170022281A1 (AbbVie / Abbott, published 2017)
